Results on 2 substances are retold here after patent US6500674.

For assay [1], the target named is phosphorylated tau prepared by incubating recombinant non-phosphorylated tau with a rat brain extract (UniProt P10636). Description: sandwich ELISA on CSF spiked with phosphorylated and non-phosphorylated tau, no amplification. For orientation: ELISA stands for enzyme-linked immunosorbent assay.
Assay [2] shares this target. As to the kind of experiment: sandwich ELISA, antibody coated, CSF spiked with tau, detection with biotinylated AT120 and HT7.
Assay [3] deals with recombinant non-phosphorylated tau (UniProt P10636). The description is as above.
The target in assay [4] is phosphorylated tau prepared by incubating recombinant non-phosphorylated tau with a rat brain extract (UniProt P10636). Description: sandwich ELISA, antibody coated, CSF without added tau (background), detection with biotinylated AT120 and HT7.
Assay [5] concerns the target recombinant non-phosphorylated tau (UniProt P10636). The description is as above.

As for “monoclonal antibody AT270 secreted by the hybridoma deposited at ECACC on Jul. 7, 1993 under No. 93070774”, the detection limit in ELISA in assay [1] is 10 pg/mL. Moreover, in assay [2], the ELISA signal at 0.2 pg/ml tau was found to be 89, the ELISA signal at 1 pg/ml tau came to 83, the ELISA signal at 5 pg/ml tau turned out to be 86 and the ELISA signal at 25 pg/ml tau is 113. For the same substance, in assay [2], the ELISA signal at 100 pg/ml tau was found to be 158, the ELISA signal at 500 pg/ml tau is 1040 and the ELISA signal at 2000 pg/ml tau came to 2650. Moreover, in assay [3], the ELISA signal at 0.2 pg/ml tau worked out at 91, the ELISA signal at 1 pg/ml tau worked out at 90, the ELISA signal at 5 pg/ml tau came out at 87 and the ELISA signal at 25 pg/ml tau was 92. Further, in assay [3], the ELISA signal at 100 pg/ml tau turned out to be 96, the ELISA signal at 500 pg/ml tau was 94 and the ELISA signal at 2000 pg/ml tau turned out to be 98. In assay [4], the ELISA signal at 0 pg/ml tau (blank) was 94. In assay [5], the ELISA signal at 0 pg/ml tau (blank) is 92.
Regarding “monoclonal antibody AT180 secreted by the hybridoma deposited at ECACC on Dec. 22, 1992 under No. 92122204”, the detection limit in ELISA in assay [1] was 10 pg/mL. In assay [2], the ELISA signal at 0.2 pg/ml tau was determined as 95, the ELISA signal at 1 pg/ml tau was determined as 97, the ELISA signal at 5 pg/ml tau turned out to be 106 and the ELISA signal at 25 pg/ml tau was 105. In addition, in assay [2], the ELISA signal at 100 pg/ml tau is 125, the ELISA signal at 500 pg/ml tau came out at 179 and the ELISA signal at 2000 pg/ml tau came out at 449. Moreover, in assay [3], the ELISA signal at 0.2 pg/ml tau came out at 85, the ELISA signal at 1 pg/ml tau came to 87, the ELISA signal at 5 pg/ml tau was 90 and the ELISA signal at 25 pg/ml tau came out at 85. In assay [3], the ELISA signal at 100 pg/ml tau was 94, the ELISA signal at 500 pg/ml tau was determined as 92 and the ELISA signal at 2000 pg/ml tau was found to be 95. Further, in assay [4], the ELISA signal at 0 pg/ml tau (blank) amounted to 94. Moreover, the ELISA signal at 0 pg/ml tau (blank) in assay [5] turned out to be 89.
